Test results published in publication PMC10766600 (2024).
“And” between values parts separate entries of the source, which are not always exact repeats. Equal values may be shown once.

B1: bacteriophage T5 capsid-like particles (T5 CLPs) (complex)
chain: AVNQSSSVEVSSESYETIFSQRIIRDLQKELVVGALFEELPMSSKILTMLVEPDAGKATWVAASTYGTDTTTGEEVKGALKEIHFSTYKLAAKSFITDETEEDAIFSLLPLLRKRLIEAHAVSIEEAFMTGDGSGKPKGLLTLASEDSAKVVTEAKADGSVLVTAKTISKLRRKLGRHGLKLSKLVLIVSMDAYYDLLEDEEWQDVAQVGNDSVKLQGQVGRIYGLPVVVSEYFPAKANSAEFAVIVYKDNFVMPRQRAVTVERERQAGKQRDAYYVTQRVNLQRYFANGVVSGTYAAS
B2: decoration protein pb10 of bacteriophage T5, full length (natural protein)
chain: MIDYSGLRTIFGEKLPESHIFFATVAAHKYVPSYAFLRRELGLSSAHTNRKVWKKFVEAYGKAIPPAPPAPPLTLSKDLTASMSVEEGAALTLSVTATGGTGPYTYAWTKDGSPIPDASGATYTKPTAAAEDAGSYKVTVTDSKQVSKDSTTCAVTVNPTVPGG
modifications: DNA-free expanded capsid lacking pb10 (T5 dec deletion, stAmN5). Mature pb8 after removal of the scaffolding domain; limits from the UniProt chain feature, matching the 299 aa entity of PDB 6OMC/6OMA. Minor capsid components (portal) not included.

Columns and labels:
Experiment in all cases: SPR
[1] = target: pmC: full-length pb10 fused at its C-terminal end with mCherry (bacteriophage T5 | , UniProt Q6QGD6 1-164)
[2] = target: pNmC: N-terminal capsid-binding domain pN of pb10 fused at its C-terminal end with mCherry (bacteriophage T5 | , UniProt Q6QGD6 1-73)
[3] = target: pNO: N-terminal capsid-binding domain pN of pb10 fused at its C-terminal end with ovalbumin (bacteriophage T5 | , UniProt Q6QGD6 1-73)
[4] = target: pO: full-length pb10 fused at its C-terminal end with ovalbumin (bacteriophage T5 | , UniProt Q6QGD6 1-164)
[5] = target: B1

## B1
[1]
  Kd: 1.4 pM
  koff: 0.0002 s⁻¹
[2]
  Kd: 0.9 pM
  koff: 0.00011 s⁻¹
[3]
  Kd: 1.2 pM
  koff: 0.00023 s⁻¹
[4]
  Kd: 2.3 pM
  koff: 0.00035 s⁻¹

## B2
[5]
  koff: 0.00019 s⁻¹ and 0.0003 s⁻¹
